Data set [1] concerns the target T1, MYB96-His (Arabidopsis thaliana) (UniProt Q24JK1).
T1 sequence: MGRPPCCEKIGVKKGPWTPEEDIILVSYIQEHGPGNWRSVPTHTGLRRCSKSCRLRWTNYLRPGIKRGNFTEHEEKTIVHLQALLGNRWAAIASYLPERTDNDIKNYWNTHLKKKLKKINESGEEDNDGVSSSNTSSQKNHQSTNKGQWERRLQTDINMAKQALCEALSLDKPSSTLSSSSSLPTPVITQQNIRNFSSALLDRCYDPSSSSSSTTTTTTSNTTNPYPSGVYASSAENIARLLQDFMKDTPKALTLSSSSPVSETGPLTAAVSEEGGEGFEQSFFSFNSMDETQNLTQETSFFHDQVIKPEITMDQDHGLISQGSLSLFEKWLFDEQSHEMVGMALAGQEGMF
Kind of data set: EMSA. The note with it: EMSA as in Shi et al. 2012; buffer, salt, pH and temperature not stated. In general terms: A gel shift assay detects complexes by their altered migration in electrophoresis.

Data set [2] addresses T2, LTP3 (LTP3-GST) (Arabidopsis thaliana, UniProt Q9LLR7).
T2 sequence (Q9LLR7 24-115): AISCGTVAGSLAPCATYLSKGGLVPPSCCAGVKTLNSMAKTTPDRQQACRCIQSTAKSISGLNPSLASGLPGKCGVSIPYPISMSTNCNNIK
The data set is described as follows: fluorescence titration. In kind it is binding.

For “CCACAGTTAATTAAAAGCAGATGAAAGGTGGTCCAATGGAAAAGGAGAATGTGATTGGGCTAGTTGGGAGAGTTCTGATGTCTAGTGTTGGGTACACGTGTCCGTCAGTTACACA (double strand) [LTP3 promoter XY]”, the binding result in data set [1] is listed as “binds”.

On to `Cc1ccc(Nc2ccc3cc(S(=O)(=O)O)ccc3c2)cc1` [TNS, 2-p-toluidinonaphthalene-6-sulphonate], for which, in data set [2], the Kd is 9.8 ± 4.7 µM.

The term Kd denotes the concentration at which binding is half-saturated. A low value points to a tighter complex.

The record behind these values is paper PMC3617838 (Journal of Experimental Botany, 2013).
